B1: ACE-05 (항-PD-L1 Fab × 항-CD3 Fv) (bispecific antibody)
heavy 1: not shown
heavy 2: not shown
light: QLVLTQPPSVSGAPGQRVTISCTGSSSNIGAGYDVHWYQQLPGAAPKLLIYGDINRPSGVPDRFSGSKSGISASLAITGLQAEDEADYYCQSYDSSLSGGVFGGGTKLTVLRSVAAPSVFIFPPSDEQLKSGTASVVCLLNNFYPREAKVQWKVDNALQSGNSQESVTEQDSKDSTYSLSSTLTLSKADYEKHKVYACEVTHQGLSSPVTKSFNRGEC
notes: also called ALiCE; ACE-05-VH / ACE-05-VL / ACE-05-LC
B2: ACE-31 (항-CD3 Fab × 항-PD-L1 Fv) (bispecific antibody)
heavy 1: EVQLQQSGPELVKPGPSMKISCKASGYSFTGYTMNWVKQSHGKNLEWMGLINPYKGVSTYNQKFKDKATLTVDKSSSTAYMELLSLTSEDSAVYYCARSGYYGDSDWYFDVWGQGTTLTVFSASTKGPSVFPLAPSSKSTSGGTAALGCLVKDYFPEPVTVSWNSGALTSGVHTFPAVLQSSGLYSLSSVVTVPSSSLGTQTYICNVNHKPSNTKVDKKVEPKSCDKTHTCPPCPPCPAPELLGGPGGGGSGGGGSQMQLVQSGAEVKKPGSSVKVSCKASGGTFSSYAISWVRQAPGQGLEWMGRIIPILGIANYAQKFQGRVTITADKSTSTAYMELSSLRSEDTAVYYCAKPRDGYNLVAFDIWGQGTMVTVSS
heavy 2: EVQLQQSGPELVKPGPSMKISCKASGYSFTGYTMNWVKQSHGKNLEWMGLINPYKGVSTYNQKFKDKATLTVDKSSSTAYMELLSLTSEDSAVYYCARSGYYGDSDWYFDVWGQGTTLTVFSASTKGPSVFPLAPSSKSTSGGTAALGCLVKDYFPEPVTVSWNSGALTSGVHTFPAVLQSSGLYSLSSVVTVPSSSLGTQTYICNVNHKPSNTKVDKKVEPKSCDKTHTCPPCPPCPAPELLGGPGGGGSQLVLTQPPSVSGAPGQRVTISCTGSSSNIGAGYDVHWYQQLPGAAPKLLIYGDINRPSGVPDRFSGSKSGISASLAITGLQAEDEADYYCQSYDSSLSGGVFGGGTKLTVLR
light: DIQMTQTTSSLSASLGDRVTISCRASQDIRNYLNWYQQKPDGTVKLLIYYTSRLHSGVPSKFSGSGSGTDYSLTISNLEQEDIATYFCQQGNTLPWTFAGGTKLEIKRTVAAPSVFIFPPSDEQLKSGTASVVCLLNNFYPREAKVQWKVDNALQSGNSQESVTEQDSKDSTYSLSSTLTLSKADYEKHKVYACEVTHQGLSSPVTKSFNRGEC
notes: also called ACE-31-VH / ACE-31-VL / ACE-31-LC
B3: YBL-007 (항-PD-L1 모 항체) (antibody, V domains shown)
VH: QMQLVQSGAEVKKPGSSVKVSCKASGGTFSSYAISWVRQAPGQGLEWMGRIIPILGIANYAQKFQGRVTITADKSTSTAYMELSSLRSEDTAVYYCAKPRDGYNLVAFDIWGQGTMVTVSS
VL: QLVLTQPPSVSGAPGQRVTISCTGSSSNIGAGYDVHWYQQLPGAAPKLLIYGDINRPSGVPDRFSGSKSGISASLAITGLQAEDEADYYCQSYDSSLSGGVFGGGTKLTVLR
notes: Parent IgG; also called anti-PD-L1 parent antibody (Y-Biologics Inc.)

Legend:
PD-L1 on cells [1] = target: T1, PD-L1 on cells (human, UniProt Q9NZQ7 19-290); test: cell-based or functional assay
CD3 on T cells = target: T2, CD3 on T cells (UniProt P07766 23-207); test: flow cytometry, apparent affinity on CD3 + Jurkat T cells
T2 construct: whole, on cells; also called CD3 + Jurkat T 세포; Jurkat T 세포의 CD3

PD-L1 on cells [2] = target: T1, PD-L1 on cells; test: flow cytometry, apparent affinity on PD-L1 + Karpas-299 cells
PD-L1-his [3] = target: T3, PD-L1-his (human, UniProt Q9NZQ7 19-238, limits assumed); test: SPR (Biacore 8K), PD-L1-his immobilised on CM5 chip, binder as analyte
T3 construct: also called 인간 PD-L1; not shown: his tag

PD-L1-his [4] = target: T3, PD-L1-his; test: SPR (Biacore 8K); ratio of KD against YBL-007 on PD-L1
PD-L1-his [5] = target: T3, PD-L1-his; test: SPR (Biacore 8K), PD-L1-his immobilised on CM5 chip, binder as analyte; monovalent stem Fv

T3 sequence (Q9NZQ7 19-238 limits assumed): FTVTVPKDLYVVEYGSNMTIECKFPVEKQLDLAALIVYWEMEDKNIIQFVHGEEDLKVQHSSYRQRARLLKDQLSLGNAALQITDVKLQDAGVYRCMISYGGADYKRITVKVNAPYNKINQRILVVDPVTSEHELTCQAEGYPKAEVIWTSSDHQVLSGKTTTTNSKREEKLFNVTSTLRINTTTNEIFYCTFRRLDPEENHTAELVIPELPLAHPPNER
T1 sequence (Q9NZQ7 19-290): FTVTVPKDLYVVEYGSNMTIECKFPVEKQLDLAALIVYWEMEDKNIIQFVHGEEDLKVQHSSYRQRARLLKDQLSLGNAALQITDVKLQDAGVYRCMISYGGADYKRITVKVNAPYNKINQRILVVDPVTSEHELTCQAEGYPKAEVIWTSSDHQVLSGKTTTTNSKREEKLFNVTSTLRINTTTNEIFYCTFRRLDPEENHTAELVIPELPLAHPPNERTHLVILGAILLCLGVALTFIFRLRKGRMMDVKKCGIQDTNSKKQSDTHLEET
T2 sequence (P07766 23-207): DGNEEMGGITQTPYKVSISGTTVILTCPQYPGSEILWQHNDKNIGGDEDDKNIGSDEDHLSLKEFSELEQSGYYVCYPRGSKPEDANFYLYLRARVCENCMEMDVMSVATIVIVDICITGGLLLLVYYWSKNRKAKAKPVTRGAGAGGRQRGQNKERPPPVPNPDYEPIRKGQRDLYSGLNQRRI

Binder	T 세포 활성화 효율 (EC50); PD-1/PD-L1 blockade bioassay, NFAT-luciferase, PD-L1/aAPC CHO-K1 + PD-1 Jurkat (PD-L1 on cells [1]) [nM]	T 세포 활성화 효율, fold against BiTE-05; PD-1/PD-L1 blockade bioassay (PD-L1 on cells [1]) [fold]	표적 사멸 활성 (EC50), LDH release, PD-L1 + HCC827 cells with effector cells (PBMC) (PD-L1 on cells [1]) [nM]	표적 사멸 활성 (EC50), LDH release, PD-L1 + MDA-MB-231 cells with effector cells (CD3 + T cells) (PD-L1 on cells [1]) [nM]	Kd (CD3 on T cells) [nM]	Kd (PD-L1 on cells [2]) [nM]	Kd (PD-L1-his [3]) [nM]	fold lower binding affinity than the parent antibody YBL-007 (PD-L1-his [4]) [fold]	Kd (PD-L1-his [5]) [nM]
B1	0.21	5	0.00197	0.00837	52.4	0.0314	0.678		
B2					0.856	20.6		40	27.2
B3							0.646		
